For the assay, the target named is trastuzumab. Kind of assay: BLI; trastuzumab (5 µg/mL) captured on anti-human IgG Fc (AHC) biosensors; serial dilutions of the masks or HER2 in solution; DPBS, 0.1% BSA, 0.02% Tween 20; global fit to a 1:1 model. In general terms: Biolayer interferometry detects binding as a change in optical thickness at a sensor tip.

B1: dAb (VHH)
VHH: EVQLVESGGGLVQAGDSLTLSCAASGRTFSSVAMGWFRQAPGKERKFVANISWNGDSTYYTDSVKGRFTISRDNAKNTVYLQMSSLKPEDTAVYYCAADVRWTGDGHRADYWGQGTQVTVSS
For the molecule B1, the Kd (as a rule, the constant that tells how readily two partners part at equilibrium) was determined as 192 pM; the half-life of dissociation was determined as 3.3 h; the koff – broadly, the rate constant with which the complex falls apart – was 5.76e-05 s⁻¹.

The values above are taken from PMC9272835.
